In a protein production outcome set (Wang et al. 2014):

Test: label from the status in PepcDB records
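Note: failed if final PepcDB status was selected cloned or expressed and not failed if soluble or beyond.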

Row | Sequence | protein production
1 | MASLAAVVRALLRRESQRATGYALREWTMLTARHLPYLQGQLTLGRIAAVGHLQRSTLGRSEWHTSSAPLFGEGRGRWHWGLSTSDVVDGSDHEHHSTETGGRELPSFKTGELGSDVDGDRAALEAWLAQIRDETSGWPELSLDALRDELDEELEGDDDDNDDDDDETYENEELLKALQEAVNRHRTPVVALVSGRVVHLRRTAAPKRSPRAGRVPRNEPQTTSRDTTKADANDNECT | not failed
2 | MASLIMTTPFPGSVTACKKTNNLSVQRAFKVTCMQTEKPLEELYNVKVERKVSQKRLEELGVSRWSVWKTGKCKLPWDWQVDQLVYIEQGEVRVVPEGSKRYMQFLAGDLVRYPKWLEADLFFNAPYIERYCFKAYGDD | failed
3 | MASSAVSLQSISMTTLNNLSCNQQFHRSSLLGSSKSFQNLGISSNGSDFSYPSSFTAKKNLTASRALSQNGNIENPRPSKVQELSVYEINELDRHSPKILKNAFSLMFGLGDLVPFTNKLYTGDLKKRVGITAGLCVVIEHVPEKKGERFEATYSFYFGDYGHLSVQGPYLTYEDSFLAITGGAGIFEGAYGQVKLQQLVYPTKLFYTFYLKGLANDLPLELTGTPVPPSKDIEPAPEAKALEPSGVISNYTN | not failed
4 | MASSKQADPQTDARPLPQDFETALAELESLVSAMENGTLPLEQSLSAYRRGVELARVCQDRLAQAEQQVKVLEGDLLRPLDPAALDDE | not failed
5 | MASSVILREDGFAPPKPSPTTHEKASTKGDRDGVECKNSDSEEECLVKKTVAAHTDYIYTQDLNLSP | failed
6 | MASTNQELASALRMFSRFFDLIHQPLAVINERGEYVYYNQESADLDGYSIERAMGKHMLDVYPGMKETQSTMLSSLKKGVEYIGHYQIYYNARGQAVDYQHTTAPLYASDGGMVGVIEIGRNMSGVRRLQEQVVELNQLLYADHHEKHHAIITENPEMLSNIAKAKRLAASNIPVTIVGETGTGKELFSRLIHQCSKRANKPFIALNCGALPPTLIESTLFGTVRGAYTGAENSQGYLELANGGTLFLDELNAMPIEMQSKLLRFLQDKTFWRLGGQQQLHSDVRIVAAMNEAPVKLIQQERLRADLFYRLSVGMLTLPPLRARPEDIPLLANYFIDKYRNDVPQDIHGLSETARADLLNHAWPGNVRMLENAIVRSMIMQEKDGLLKHIIFEQDELNLGVPETAPENPLPSSPDPQYEGSLEVRVANYERHLIETALDTHQGNIAAAARSLNVSRTTLQYKVQKYAIRFGVVRN | failed
7 | MASWLVLCRFVHFAVVLTLVGAWVFRPLLLGRDSAQSGHGAVHRQLDRLSRWLTLIGLGSGLCWLLLITASMAGSWSAALDPATVQLVLGKTFFGQVWTWHLLLNLLLLGLLLTPLGRRLPLQLGLGALLLATLAPVGHGAMLDGLAGQLLILNQVVHLSCVGIWLGGLLVLLLVLRQPPQASVEPLLRRFSGVGYGLVAGLLASGLINVRVLTGQWWPTPLFSGFALILLIKVLLVAGMLALALFNRLRIRGCDQRLASLRNSVQLEWLLGVAAVAAVSLLGTLPPMQVI | failed
8 | MASYAELFDIGEDFAAFVGHGLATEQGAVARFRQKLESNGLPSALTERLQRIERRYRLLVAGEMWCPDCQINLAALDFAQRLQPNIELAIISKGRAEDDLRQRLALERIAIPLVLVLDEEFNLLGRFVERPQAVLDGGPQALAAYKAGDYLEHAIGDVLAIIEGAAR | not failed
9 | MATAFSSLRARLFALLLLALLLLLAPLAWLSAREAERAASEDLRRALYTRLYLLQAEGVQDEERLLLELFRLAQLFGGGVGFVLREGEARFTQLGDWPLPPGLPAALAAEGVYQGVFRGTLYVVLAQGGLAYGLAVPLEGVSGLGQRLLARYALWGGGLLLGVFLLAALALSWTLRPLRDLEKALRARAPEDLSPLPDPGLAELRPVVAALNALFARVGRLLAELAEKEEAARRFARHASHELRTPLTALKGYLEVLRRKNEPRALEGALREAGRMEALLAGLLRLSRLEALPPQRVPLDLRAFLEAQGLEVQGEGRVLADPELLALAVENVLENARRHGRLPVRAELSREGEGVWVWLVDAGPGFPEDLLPRVLEPFVHGGKGTGLGLALVAAVARAHGGRVRVENRGGAGVGLYLPLAPLKVSPGVPFGEGG | not failed
10 | MATAGSSYSVSTDHQVSSPLVNLGNVAGVCIMSNAWKVEQEPSLINFISAFLSANSFRLNFVSIPPDLIFNCGGVSIAFVFVTKWDFSNVASIFSRVKRLKGQFAQLYVVATLSTKEQSDSFMRSYFQYEMEFGKPAFVQVTDAEMGFEKIVKIAHSRGVCKQQKVASKLKVERKRTVQDTNIFIRFVTSIPNINKHDANTVMFTYEQVQVLYQAIGSIEAIAKASKEDILANTDLSSKKADTLTRFFQDPEFYLSPKFN | failed
11 | MATATATSERFELAKHCSSRNWSKAIRVLDSLLAKESSILDICNRAFCYNQLELHKHVIKDCDKALLLEPFAIQAFILKGRALLALGRKQEAVLVLEQGYKSALQQTADVKQLLELEELLKDARREIDGILKSHATESPQETPAYHSEKSDEKSDKLDNHESGASSNGNSHESSSELGEQSKIVSFSKVASKASKQSDGNSDLCNGSVYKEKENGKCGSQINGYYESCKPCNGSDLHDNLAESSDRFGELSINGNKISIKSSKMSHKAEARCGISDESRKNKKYTIARISGTHSISVDFRLSRGIAQVNEGNYTKAISIFDKVLKEEPTYPEALIGRGTAYAFQRELESAIADFTKAIQSNPAASEAWKRRGQARAALGEYVEAVEDLTKALVFEPNSPDVLHERGIVNFKSKDFTAAVKDLSICLKQEKDNKSAYTYLGLAFASLGEYKKAEEAHLKSIQLDSNYLEAWLHLAQFYQELADHCKALECIEQVLQVDNRVWKAYHLRGLVFHGLGEHRKAIQELSIGLSIENTIECLYLRGSCYHAVGEYRDAVKDYDATVDVELDAVEKFVLQCLAFYQKELALYTASKVSSEFLCFDIDGDIDPMFKEYWCKRLHPKNVCEKVYRQPPLRESLKKGKLKKQDLAITKQKANILRFADLIGKRIQYDCPGFLPNKRQHRMAGLAVIEIAQKVSKAWRIEWRNSTKGTTKNGKKNRRRERTNILSQNRGGAGCSSSSFSETSTGYASLEDRSSGRSILSWQDVYSPAVRWRQISEPCDPVVWVNKLSEEFNSGFGSHTPMVLGQAKVVRYFPNYERTLTLAKSIIKDKLSVRSKKDKVIDLSKDEKIEKIMRAETCDELHNIVGEDFWVATWCDSTGSEGWVC | failed
12 | MATDTTVQLRAGWQGRFYEDFAVGDVYKHPYGRTVTETDNVWFTNLTMNANPMHFNAAYASGTEFDERLVNGLFVIALSVGMSVVDVSANATANLGYDDIQHHAPVFHGDTLFAESEVLSKRESESRPHVGMVTTELRTYTQDGELVLSLERTPMVRKRGAADPLEHHHHHH | failed
13 | MATEATTKFPESDLRPIPQPPDFHPAIIVPAQNTTLKFWQLMVAGSIAGSVEHMAMFPVDTVKTHMQALRSCPIKPIGIRQAFRSIIKTDGPSALYRGIWAMGLGAGPAHAVYFSFYEVSKKFLSGGNPNNSAAHAISGVFATISSDAVFTPMDMVKQRLQIGNGTYKGVWDCIKRVTREEGFGAFYASYRTTVLMNAPFTAVHFTTYEAVKRGLREMLPEHAVGAEDEEGWLIYATAGAAAGGLAAAVTTPLDVVKTQLQCQGVCGCDRFKSSSISDVFRTIVKKDGYRGLARGWLPRMLFHAPAAAICWSTYETVKSFFQDLNGEANAA | failed
14 | MATEIGSPPRFFHMPRFQHQAPRQLFYKRPDFAQQQAMQQLTFDGKRMRKAVNRKTIDYNPSVIKYLENRIWQRDQRDMRAIQPDAGYYNDLVPPIGMLNNPMNAVTTKFVRTSTNKVKCPVFVVRWTPEGRRLVTGASSGEFTLWNGLTFNFETILQAHDSPVRAMTWSHNDMWMLTADHGGYVKYWQSNMNNVKMFQAHKEAIREASFSPTDNKFATCSDDGTVRIWDFLRCHEERILRDTCFHHCRCYFLSVKR | failed
15 | MATEKLPPLERYIRMLELLTAFPDGLALSELSAMIELPKASAHRLIKTLQELELAATSSPGSATYVTGPRLRKLAFMSADAQWVVAILRPFLRELTQEMGETAFVARLEGASVRTIAFEAPETPWRGFILPGYEMHPNAAASAKAILAFQDAATLKRALREPFERLTPQTNLSKERLLEEYAAIRQSGVATCIGEIDEGLAAVAVPIEVGGAAGLYSLGLTGPMNRVMALGVERAAERMMAYAARMASGLSAGLSAESARAAGLS | failed
16 | MATGKISKRSIDALRPNASNQFLWDTDLKGFGAKITPAGAISYVLQFRMGGREASTRRYTIGAHGSPWTPTTARAEAERLLLLIGQGVDPVDADKQRRREAVDLAFANYAERFARSCKGDGWRRLVERAIRLYLTPVLGKKALPAINRTDVVSVFDNMPADQVANRRNVFAVLRRLFRWAVSRGDLDRSPMEGMETPPPVKARERWLSDDELRLIWNAAPECHRCFGPIVRLLIATGQRREEVSGMRWSELSRTDKLWTLPGDRTKNGEPNTIPLNDLAVAELDAAAGGDKWPRKGRVFATSTGAGFTGYAKGKDKLDRLIELAEGEPLPPWRLHDLRRTLATNFQRLGVRFEVTEAVLNHVGGSRSGVAGIYQRHDWKEEKRQALDDWNSHLEQILMRPSPGNRQAASQAAADLDK | failed
17 | MATGNTLLAVYRSRIGEPTTDDEAYGYWLFVIGIVLGIVGLLLFYLTASRSTPRQFGYLLGAIGLISLFAGPTIRLPLTRRGLILTYLGAVVGLVAMVWFTTFYPSNWTGPEGNPAVTLYIVGLGLMAVGAVVSPLLTGRKEAYDKAVQTAEDATEVAEQATQEADRASREATQQSQTADRATRERNRLAEQLATSEAAREELATVTEASEAELAAAHATIAAAMDSKATFELYEDAGGKYRWRLRHRNANVIADSAQGYSSRQKAMQGLRSVQSNAAGGAVVFFEDATEDDTAEDVPVVPAPESDATFELFEDSAGEFRWRLRHDNGNILADSGEGYASKSNVRRALQSVRAHVPGAAYLRVDPVAYEVYADAAGEFRWRLLHRNGNILADSGEGYSSRSNARRAARRVSELAPDSAVDDRFEVYEDAAEEWRWRLRADNGELIADSGEGYANRSKAMDAVERVQSYAADADLLAIGSAAFEVYEDKGEEWRWRLRHRNGKIIADSGEGYAERNKAVAAIERIKRHAPGATQEE | failed
18 | MATIDLVRHAEPDITIHDDFLRPLTSAGQRQTQQLVDSLHQYPYTAFFSSPLKRAVDTITPIADDHGLPVQKNELLVERKMPAWLPNFSDYVNQQWQDLTFFEKPGESIHQVQERYLSFLYGLPSSAFVAVGSHGTAISSLVEAAIPGIGYHFFSKLGYAAVTRIEMHAGNMVHLAVWEPKSKTFKVLK | failed
19 | MATIYLVRHGQASFGKENYDQLSPRGWEQGRILGRWLAGKVEPGAVFGGNLQRHRETVEAITTGYGVSLPDMQVLEGLNEFDHLEVVERLRPEWADKQVMARDLASFPKPAKAFQQAFEKAVARWVSGDYDHEYTETWIDFRQRVGAALDELIELAGGADVIVSTSGGPIAVIAQHLLELSDRKALEMNNVIANTSVSRILYSGPRRSLAVFNNYSHLEAEDPALVTFR | failed
20 | MATKAIVVEGGAMRGVFASGVLDAFLERDYKPFDFAIGVSAGASNLIGYLTDYPHRSINVITKLATSKRFFDPTRFLKGGDLIDVKWLFEESNRLYPVDEKKLFEGIPFFAATTNVDTGKADYYRVTRENFHHAIEATTALPIAYKHTPCFSGGCYTDGGVADSIPVREAYRRGARDITVVLSHPLNYSKKPVKNTWLMNKLFAEHPKMAEAMLHRSENYNESLEFIRNPPQGTRVRVIAPPDEFHVQRLSMRQSVLLEGYEMGLQEGRTHITNLSGGYGLSRENCHFCL | failed
